From patent publication CN114651011A (dated 2022)

T1: 人CD43 (human CD43, UMG1 epitope), endogenous on human cells, cell lines and tissues (human, UniProt P16150 20-400)
T1 construct: The cells carry the natural protein; also called UMG1表位; UMG1抗原
T1 sequence: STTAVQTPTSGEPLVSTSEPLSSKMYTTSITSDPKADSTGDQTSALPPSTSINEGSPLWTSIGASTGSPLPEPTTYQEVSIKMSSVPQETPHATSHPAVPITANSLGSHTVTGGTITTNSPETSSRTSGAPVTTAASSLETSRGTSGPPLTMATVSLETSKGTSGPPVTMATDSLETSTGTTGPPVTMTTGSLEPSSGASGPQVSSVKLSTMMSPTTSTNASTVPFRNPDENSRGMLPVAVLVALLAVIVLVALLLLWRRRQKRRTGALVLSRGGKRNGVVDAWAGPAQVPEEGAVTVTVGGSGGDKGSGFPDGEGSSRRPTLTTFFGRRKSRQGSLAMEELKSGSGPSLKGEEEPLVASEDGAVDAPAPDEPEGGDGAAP


biological target: T1, 人CD43 (human CD43, UMG1 epitope), …; assay: flow cytometry on PBMC of healthy donors, 1 μg/ml, FITC secondary antibody

Binder | binding result
单克隆抗体UMG1 (murine anti-human CD43 antibody produced by the hybridoma deposited as ICLC PD n°16001) (antibody, V domains shown, Murine antibody, kappa light chain; the negative control is a murine IgG1; also called m-UMG1; mUMG1) VH: DVQLVESGGGLVQPGGSRKLSCVASGFTFSSFGMHWVRQAPEKGLEWVAYISSGSGNFYYVDTVKGRFTISRDNPKNTLFLQMTSLRSEDTAMYYCARSTYYHGSRGAMDYWGQGTSVTVSS VL: QIALTQSPAIMSASPGEKVTMTCSASSSVSSMYWYQLKPGSSPRLLIYDTSKMASGVPIRFSGSGSGTSFSLTVSRVEAEDAATYYCQQWSSYPPITFGAGSKLELK | binds

biological target: T1, 人CD43 (human CD43, UMG1 epitope), …; assay: flow cytometry (MFI) on HPB-ALL and H9 cells, 1 μg/ml, FITC mouse anti-human IgG

Binder | binding result
人源化UMG1抗体 H2-L1 (antibody, IgG1, V domains shown, one of the 16 combinations of H1-4 with L1-4) VH: EVQLVESGGGLVQPGGSLRLSCVASGFTFSSFGMHWVRQAPGKGLEWVSYISSGSGNFYYVDTVKGRFTISRDNAKNSLYLQMNSLRAEDTAVYYCARSTYYHGSRGAMDYWGQGTLVTVSS VL: EIVLTQSPATLSLSPGERATLSCSASSSVSSMYWYQQKPGLAPRLLIYDTSKMASGIPDRFSGSGSGTDFTLTISRLEPEDFAVYYCQQWSSYPPITFGQGTRLEIK | binds
人源化UMG1抗体 H2-L3 (antibody, IgG1, V domains shown, one of the 16 combinations of H1-4 with L1-4) VH: EVQLVESGGGLVQPGGSLRLSCVASGFTFSSFGMHWVRQAPGKGLEWVSYISSGSGNFYYVDTVKGRFTISRDNAKNSLYLQMNSLRAEDTAVYYCARSTYYHGSRGAMDYWGQGTLVTVSS VL: QVVMTQSPAFLSVTPGEKVTITCSASSSVSSMYWYQQKPDQAPKLLIYDTSKMASGVPSRFSGSGSGTDFTFTISSLEAEDAATYYCQQWSSYPPITFGGGTKVEIK | binds
人源化UMG1抗体 H1-L4 (antibody, IgG1, V domains shown, one of the 16 combinations of H1-4 with L1-4) VH: EVQLVESGGGLVQPGGSLRLSCAASGFTFSSFGMHWVRQAPGKGLEWVSYISSGSGNFYYVDTVKGRFTISRDNAKNSLYLQMNSLRAEDTAVYYCARSTYYHGSRGAMDYWGQGTLVTVSS VL: QVVMTQSPAFLSVTPGEKVTITCSASSSVSSMYWYQLKPDQAPKLLIYDTSKMASGVPIRFSGSGSGTDFTFTVSSVEAEDAATYYCQQWSSYPPITFGGGTKVEIK | binds
人源化UMG1抗体 H2-L2 (antibody, IgG1, V domains shown, one of the 16 combinations of H1-4 with L1-4) VH: EVQLVESGGGLVQPGGSLRLSCVASGFTFSSFGMHWVRQAPGKGLEWVSYISSGSGNFYYVDTVKGRFTISRDNAKNSLYLQMNSLRAEDTAVYYCARSTYYHGSRGAMDYWGQGTLVTVSS VL: EIALTQSPATLSLSPGERATLSCSASSSVSSMYWYQLKPGLAPRLLIYDTSKMASGIPIRFSGSGSGTDFTLTVSRVEPEDFAVYYCQQWSSYPPITFGQGTRLEIK | binds
人源化UMG1抗体 H2-L4 (antibody, IgG1, V domains shown, one of the 16 combinations of H1-4 with L1-4) VH: EVQLVESGGGLVQPGGSLRLSCVASGFTFSSFGMHWVRQAPGKGLEWVSYISSGSGNFYYVDTVKGRFTISRDNAKNSLYLQMNSLRAEDTAVYYCARSTYYHGSRGAMDYWGQGTLVTVSS VL: QVVMTQSPAFLSVTPGEKVTITCSASSSVSSMYWYQLKPDQAPKLLIYDTSKMASGVPIRFSGSGSGTDFTFTVSSVEAEDAATYYCQQWSSYPPITFGGGTKVEIK | binds
人源化UMG1抗体 H4-L3 (antibody, IgG1, V domains shown, one of the 16 combinations of H1-4 with L1-4) VH: QVQLVESGGGVVQPGGSLRLSCVASGFTFSSFGMHWVRQAPGKGLEWVAYISSGSGNFYYVDTVKGRFTISRDNSKNTLYLQMNSLRAEDTAVYYCARSTYYHGSRGAMDYWGQGTLVTVSS VL: QVVMTQSPAFLSVTPGEKVTITCSASSSVSSMYWYQQKPDQAPKLLIYDTSKMASGVPSRFSGSGSGTDFTFTISSLEAEDAATYYCQQWSSYPPITFGGGTKVEIK | binds
人源化UMG1抗体 H4-L2 (antibody, IgG1, V domains shown, one of the 16 combinations of H1-4 with L1-4) VH: QVQLVESGGGVVQPGGSLRLSCVASGFTFSSFGMHWVRQAPGKGLEWVAYISSGSGNFYYVDTVKGRFTISRDNSKNTLYLQMNSLRAEDTAVYYCARSTYYHGSRGAMDYWGQGTLVTVSS VL: EIALTQSPATLSLSPGERATLSCSASSSVSSMYWYQLKPGLAPRLLIYDTSKMASGIPIRFSGSGSGTDFTLTVSRVEPEDFAVYYCQQWSSYPPITFGQGTRLEIK | binds
人源化UMG1抗体 H3-L3 (antibody, IgG1, V domains shown, one of the 16 combinations of H1-4 with L1-4) VH: EVQLVESGGGLVQPGGSLRLSCVASGFTFSSFGMHWVRQAPGKGLEWVAYISSGSGNFYYVDTVKGRFTISRDNAKNSLYLQMNSLRAEDTAVYYCARSTYYHGSRGAMDYWGQGTLVTVSS VL: QVVMTQSPAFLSVTPGEKVTITCSASSSVSSMYWYQQKPDQAPKLLIYDTSKMASGVPSRFSGSGSGTDFTFTISSLEAEDAATYYCQQWSSYPPITFGGGTKVEIK | binds
人源化UMG1抗体 H4-L4 (antibody, IgG1, V domains shown, one of the 16 combinations of H1-4 with L1-4) VH: QVQLVESGGGVVQPGGSLRLSCVASGFTFSSFGMHWVRQAPGKGLEWVAYISSGSGNFYYVDTVKGRFTISRDNSKNTLYLQMNSLRAEDTAVYYCARSTYYHGSRGAMDYWGQGTLVTVSS VL: QVVMTQSPAFLSVTPGEKVTITCSASSSVSSMYWYQLKPDQAPKLLIYDTSKMASGVPIRFSGSGSGTDFTFTVSSVEAEDAATYYCQQWSSYPPITFGGGTKVEIK | binds
人源化UMG1抗体 H1-L1 (antibody, IgG1, V domains shown, one of the 16 combinations of H1-4 with L1-4) VH: EVQLVESGGGLVQPGGSLRLSCAASGFTFSSFGMHWVRQAPGKGLEWVSYISSGSGNFYYVDTVKGRFTISRDNAKNSLYLQMNSLRAEDTAVYYCARSTYYHGSRGAMDYWGQGTLVTVSS VL: EIVLTQSPATLSLSPGERATLSCSASSSVSSMYWYQQKPGLAPRLLIYDTSKMASGIPDRFSGSGSGTDFTLTISRLEPEDFAVYYCQQWSSYPPITFGQGTRLEIK | binds
人源化UMG1抗体 H3-L1 (antibody, IgG1, V domains shown, one of the 16 combinations of H1-4 with L1-4) VH: EVQLVESGGGLVQPGGSLRLSCVASGFTFSSFGMHWVRQAPGKGLEWVAYISSGSGNFYYVDTVKGRFTISRDNAKNSLYLQMNSLRAEDTAVYYCARSTYYHGSRGAMDYWGQGTLVTVSS VL: EIVLTQSPATLSLSPGERATLSCSASSSVSSMYWYQQKPGLAPRLLIYDTSKMASGIPDRFSGSGSGTDFTLTISRLEPEDFAVYYCQQWSSYPPITFGQGTRLEIK | binds
人源化UMG1抗体 H1-L2 (antibody, IgG1, V domains shown, one of the 16 combinations of H1-4 with L1-4) VH: EVQLVESGGGLVQPGGSLRLSCAASGFTFSSFGMHWVRQAPGKGLEWVSYISSGSGNFYYVDTVKGRFTISRDNAKNSLYLQMNSLRAEDTAVYYCARSTYYHGSRGAMDYWGQGTLVTVSS VL: EIALTQSPATLSLSPGERATLSCSASSSVSSMYWYQLKPGLAPRLLIYDTSKMASGIPIRFSGSGSGTDFTLTVSRVEPEDFAVYYCQQWSSYPPITFGQGTRLEIK | binds
人源化UMG1抗体 H3-L2 (antibody, IgG1, V domains shown, one of the 16 combinations of H1-4 with L1-4) VH: EVQLVESGGGLVQPGGSLRLSCVASGFTFSSFGMHWVRQAPGKGLEWVAYISSGSGNFYYVDTVKGRFTISRDNAKNSLYLQMNSLRAEDTAVYYCARSTYYHGSRGAMDYWGQGTLVTVSS VL: EIALTQSPATLSLSPGERATLSCSASSSVSSMYWYQLKPGLAPRLLIYDTSKMASGIPIRFSGSGSGTDFTLTVSRVEPEDFAVYYCQQWSSYPPITFGQGTRLEIK | binds
人源化UMG1抗体 H1-L3 (antibody, IgG1, V domains shown, one of the 16 combinations of H1-4 with L1-4) VH: EVQLVESGGGLVQPGGSLRLSCAASGFTFSSFGMHWVRQAPGKGLEWVSYISSGSGNFYYVDTVKGRFTISRDNAKNSLYLQMNSLRAEDTAVYYCARSTYYHGSRGAMDYWGQGTLVTVSS VL: QVVMTQSPAFLSVTPGEKVTITCSASSSVSSMYWYQQKPDQAPKLLIYDTSKMASGVPSRFSGSGSGTDFTFTISSLEAEDAATYYCQQWSSYPPITFGGGTKVEIK | binds
人源化UMG1抗体 H4-L1 (antibody, IgG1, V domains shown, one of the 16 combinations of H1-4 with L1-4) VH: QVQLVESGGGVVQPGGSLRLSCVASGFTFSSFGMHWVRQAPGKGLEWVAYISSGSGNFYYVDTVKGRFTISRDNSKNTLYLQMNSLRAEDTAVYYCARSTYYHGSRGAMDYWGQGTLVTVSS VL: EIVLTQSPATLSLSPGERATLSCSASSSVSSMYWYQQKPGLAPRLLIYDTSKMASGIPDRFSGSGSGTDFTLTISRLEPEDFAVYYCQQWSSYPPITFGQGTRLEIK | binds

biological target: T1, 人CD43 (human CD43, UMG1 epitope), …; assay: immunofluorescence on fixed THP-1-derived macrophages without or with PANC1 cells

Binder | binding result
ch-UMG1 (嵌合抗体, murine UMG1 variable regions on human IgG1 constant regions) (antibody, V domains shown, also called UMG1-CH; 嵌合单克隆抗体) VH: DVQLVESGGGLVQPGGSRKLSCVASGFTFSSFGMHWVRQAPEKGLEWVAYISSGSGNFYYVDTVKGRFTISRDNPKNTLFLQMTSLRSEDTAMYYCARSTYYHGSRGAMDYWGQGTSVTVSS VL: QIALTQSPAIMSASPGEKVTMTCSASSSVSSMYWYQLKPGSSPRLLIYDTSKMASGVPIRFSGSGSGTSFSLTVSRVEAEDAATYYCQQWSSYPPITFGAGSKLELKR | binds
